Columns and labels:
[1] = test system: PI16 mRNA in NHDF (Normal Human Dermal Fibroblast); assay: Timing of PI16 mRNA expression after TGFbeta treatment (RTqPCR); format: cell-based; settings: after 1 h of TGFbeta, FIG. 4A and B
Method: Quantitative real-time PCR (RT-qPCR) was done using 5 μL of 1:20 diluted cDNA on the LightCycler480 system (Roche) using Maxima SYBR Green qPCR Master Mix (Fermentas). Forward and reverse primers were designed by Eurofins (MWG, αSMA forward: […] (SEQ ID NO:1), αSMA reverse: […] (SEQ ID NO:2)) and a 100 μM stock was stored at −20° C. Forward and reverse primer pairs were used for each RT-qPCR reaction. The cycling conditions were as follows: an initial 95° C. for 10 minutes, followed by 45 cycles of 95° C. for 15 sec, 58° C. for 30 sec, 72° C. for 20 sec. LightCycler 480 SW 1.5 was used to evaluate the TM curves, to determine the Cp and to approximate the relative concentration for each amplification reaction.
NHDF (Normal Human Dermal Fibroblast) were treated with TGFbeta as described previously for different times (between 1 h and 96 h). After treatment mRNA were extracted and levels of PI16 mRNA were assessed by RTqPCR.

[2] = test system: αSMA expression in NHDF; assay: Ex vivo model for fibrosis or hypertrophic scar: αSMA expression by RT-qPCR and Western Blot; format: cell-based, human; settings: fibroblasts cultivated with TGF-β (10 ng/mL TGF-β1); FIGS. 1 and 2
Method: To study the myofibroblasts involved in generating hypertrophic or keloid scars, NHDF were cultivated on collagen coated culture plates in DMEM-F12 (Invitrogen), supplemented with 10% FCS (Invitrogen), 5 μg/mL of insulin and 1 ng/mL of b-FGF (PromoKine) and 10 ng/mL of TGF-β1 (Promocell), as TGF-β1 is known to induce the expression of αSMA in fibroblasts (Desmouliere A, Geinoz A, Gabbiani F, Gabbiani G (1993) Transforming growth factor-beta 1 induces alpha-smooth muscle actin expression in granulation tissue myofibroblasts and in quiescent and growing cultured fibroblasts. J Cell Biol, 1993 July, 122(1): 103-111). […]
This αSMA expression was assessed by RT-qPCR (mRNA levels) and by Western Blot (protein).
Total proteins were extracted by scratching the cells with lysis buffer (TRIS, NaCl, NP40, EDTA, IMDTT) and incubated 30 min in ice. […] Protein concentration was determined according to BCA method (Sigma). […] Signals were detected by ECL chemiluminescence using UptiLight HS WB Substrate (Uptima, Interchim). Bands were digitized with a scanner and the ratio between all bands density of the same blot was calculated by software (ImageJ 1.43u, 64-bit). […]
After four days of experiment, treated fibroblasts were detached with TRIzol Reagent (Invitrogen) and stored at −80° C. […] Total RNA was quantified on the NanoDrop 2000c Spectrophotometer (Thermo Scientific). […]

TGF-β: TGF-β1 (Promocell), known to induce the expression of αSMA in fibroblasts
PI16 mRNA up regulation after TGFbeta treatment [1]: 3 ×
αSMA expression (mRNA and protein) [2]: high level

— US20150087527A1, “METHOD AND KIT FOR THE CLASSIFICATION AND PROGNOSIS OF TISSUE OR ORGAN FIBROSIS IN A REPARATIVE OR REACTIVE PROCESS” (VIVATECH, priority 2012, published 2015)
